# Experimental data from paper PMC3404065.
# How the values were obtained:
# [1] = target: F-actin polymerised from purified G-actin (Cytoskeleton APHL99-A) (UniProt P60709); assay: co-sedimentation; high-speed F-actin co-sedimentation; F-actin polymerised from Mg-ATP-G-actin (50 mM KCl, 1 mM MgCl2, 1 mM ATP); 30 min at room temperature, Airfuge ~100,000 x g 30 min; supernatant and pellet on SDS-PAGE, Coomassie Blue or silver stain
# [2] = target: F-actin polymerised from purified G-actin (Cytoskeleton APHL99-A) (UniProt P60709); assay: co-sedimentation; supernatant-depletion method, equilibrium binding to ADP-F-actin (filaments from ADP-G-actin made with 20 U/mL hexokinase and 1 mM glucose); GST-ABD left in the supernatant by anti-GST immunoblot and densitometry
# [3] = target: F-actin polymerised from purified G-actin (Cytoskeleton APHL99-A) (UniProt P60709); assay: co-sedimentation; supernatant-depletion method, equilibrium binding to ATP/ADP-Pi-F-actin (filaments from ATP-G-actin); GST-ABD left in the supernatant by anti-GST immunoblot and densitometry; room temperature
substance,measurement,setting,value
GST-TEM4 81-135 (GST-ABD) (from UniProt Q96PE2 81-135) (domain or fragment),stoichiometry N,[1]; scale: actin per GST-ABD,1.4
same,stoichiometry N,"[1]; scale: ratio GST-ABD to actin, after correction for the 15-20% GST cleavage product",1
same,Kd,[2],4.7 µM
same,Kd,[3],0.053 µM
